Measured values taken from US20250011363A1, “OPTIMIZED SHORTENED PEPTIDE THAT BINDS TO ACETYLCHOLINE RECEPTOR, AND USE THEREOF” (SKINMED CO., LTD., priority 2021, published 2025).

Molecular target: acetylcholine receptor (Homo sapiens, UniProt P02708)
Test: SPR binding affinity (RU) of optimized 5mer/6mer/7mer peptides, Examples 6-7
Conditions: 6mer-1 Top sequence; SPR; peptides tested at 10 μM
Outline: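 Binding response (RU) to the human acetylcholine receptor was measured by SPR. Each 5mer or 6mer library peptide was applied at 10 μM, with sequences drawn from top and bottom amino-acid combinations.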

Sequence of acetylcholine receptor (P02708 21-457): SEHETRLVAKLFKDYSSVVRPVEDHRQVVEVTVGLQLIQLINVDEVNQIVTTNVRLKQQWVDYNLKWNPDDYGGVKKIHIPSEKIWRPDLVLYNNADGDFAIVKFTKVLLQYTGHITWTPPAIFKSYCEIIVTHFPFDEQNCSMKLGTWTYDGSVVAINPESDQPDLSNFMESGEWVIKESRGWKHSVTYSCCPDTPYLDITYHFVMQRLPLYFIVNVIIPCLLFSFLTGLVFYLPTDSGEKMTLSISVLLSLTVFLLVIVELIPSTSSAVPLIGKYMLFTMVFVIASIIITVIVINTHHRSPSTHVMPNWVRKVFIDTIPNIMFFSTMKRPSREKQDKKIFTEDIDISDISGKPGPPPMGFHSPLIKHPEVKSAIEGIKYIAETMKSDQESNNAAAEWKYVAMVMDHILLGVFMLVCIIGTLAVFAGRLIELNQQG

Substance	Binding affinity [Ru]
6mer-1-287 (RKWLTR)	136
6mer-1-329 (RKWRQK)	123
6mer-1-206 (RRLQTR)	121
6mer-1-244 (RRRVQK)	144
6mer-1-293 (RKRVCK)	154
6mer-1-215 (RKRYSR)	136
6mer-1-386 (RRSYQK)	127
6mer-1-281 (KRLLCR)	154
6mer-1-338 (KKQVLK)	127
6mer-1-290 (RKQLTK)	146

Same assay, conditions: 6mer-2 Top sequence; SPR; peptides tested at 10 μM

Substance	Binding affinity [Ru]
6mer-2-25 (KQVQKR)	148
6mer-2-114 (KLQYRK)	121
6mer-2-162 (KVISKR)	136
6mer-2-72 (KRIQKK)	144
6mer-2-49 (RLRCRK)	154
6mer-2-185 (RGYQKR)	137
6mer-2-95 (RRIYRK)	142
6mer-2-125 (KVQLRR)	142

Same assay, conditions: SPR, Resonance Units; 5mer Bottom sequence (bottom combinations); peptides tested at 10 μM

Substance	Binding affinity [Ru]
5mer-605 (RECFK)	22
5mer-720 (KDPKR)	32
5mer-784 (RACEK)	21
5mer-1072 (KDWPK)	32
5mer-736 (KKHHR)	24
5mer-742 (RNSDK)	11
5mer-702 (KISHK)	30
5mer-968 (RIPHR)	11
5mer-1052 (RNDWR)	17
5mer-974 (RHMMR)	26
5mer-664 (KPTWR)	17
5mer-987 (RAHWR)	22
5mer-908 (RCHFK)	25
5mer-734 (KATER)	16
5mer-1045 (KMDEK)	22
5mer-1096 (RPTDK)	15
5mer-1002 (KEDNK)	12
5mer-722 (KNHKK)	33
5mer-1077 (KADMK)	12

Same assay, conditions: SPR, Resonance Units; peptides tested at 10 μM; 6mer-1 Bottom sequence

Substance	Binding affinity [Ru]
6mer-1-1108 (RRAHNK)	43
6mer-1-1009 (RKMSKK)	29
6mer-1-1074 (KRTCGR)	24
6mer-1-1012 (RRAWVR)	35
6mer-1-1048 (RRCMMK)	36
6mer-1-1037 (RRKNNR)	36
6mer-1-1098 (RKKDMR)	42

Same assay, conditions: SPR, Resonance Units; peptides tested at 10 μM; 6mer-1 Bottom sequence (Table 11)

Substance	Binding affinity [Ru]
6mer-1-689 (KRCPVR)	11
6mer-1-607 (KKDHFR)	22
6mer-1-688 (RKDEVR)	33
6mer-1-723 (RKMPAK)	33
6mer-1-709 (KKFKPK)	29
6mer-1-630 (KRMEPR)	14

Same assay, conditions: SPR, Resonance Units; peptides tested at 10 μM; 6mer-2 Bottom sequence

Substance	Binding affinity [Ru]
6mer-2-610 (RKNPKR)	32
6mer-2-906 (KYCDKK)	40
6mer-2-672 (KIDDRK)	20
6mer-2-684 (RYTMKK)	14
6mer-2-875 (RIDHRK)	13
6mer-2-632 (KYDIKR)	12
6mer-2-665 (KCAERR)	18
6mer-2-937 (RASHRR)	35
6mer-2-703 (RTMHKR)	14
6mer-2-957 (RDTHRR)	40
6mer-2-822 (RCTAKK)	13
6mer-2-643 (KANPKK)	12
6mer-2-840 (KDWDRK)	15
6mer-2-824 (RITNKR)	26
6mer-2-654 (RMPEKR)	20
6mer-2-911 (KMSGKR)	21

Same assay, conditions: SPR, Resonance Units; peptides tested at 10 μM; 6mer-2 Top sequence

Substance	Binding affinity [Ru]
6mer-2-436 (KVLYKR)	148
6mer-2-569 (RWQLRK)	135
6mer-2-477 (RSRTRR)	135
6mer-2-587 (KRISKR)	148
6mer-2-411 (RSRQKK)	121
6mer-2-480 (RRFTKK)	147
6mer-2-563 (KGYQKR)	131
6mer-2-522 (RVVLRK)	124

Same assay, conditions: SPR, Resonance Units; peptides tested at 10 μM; 6mer-2 Top sequence (Table 12)

Substance	Binding affinity [Ru]
6mer-2-335 (KWRSRR)	153
6mer-2-397 (RSIYRK)	154
6mer-2-266 (RWQTKK)	131

Same assay, conditions: SPR, peptides at 10 μM; 6mer-2 Bottom sequence

Substance	Binding affinity [Ru]
6mer-2-1043 (RDKGKK)	40
6mer-2-1163 (KCHFKK)	37
6mer-2-1096 (RANVKR)	39
6mer-2-1164 (RYNHKR)	33
6mer-2-1145 (RIKNRR)	23
6mer-2-1142 (KKAMKR)	30
6mer-2-1076 (RYCIRR)	34

Same assay, conditions: SPR, peptides tested at 10 μM; 5mer Top sequence

Substance	Binding affinity [Ru]
5mer-476 (RSICK)	70
5mer-101 (RQQYR)	55
5mer-358 (KVRSK)	50
5mer-456 (RLVCK)	52
5mer-94 (RWFQR)	50
5mer-29 (KGFCR)	63
5mer-399 (KWIQR)	62
5mer-419 (RVYTR)	67
5mer-304 (RSVRK)	76
5mer-428 (RQFLK)	86
5mer-486 (RWLQR)	53
5mer-120 (RQILK)	68
5mer-92 (RVRLK)	62
5mer-369 (RGFTR)	84
5mer-329 (RRFCR)	79
5mer-393 (KSLQR)	75

Same assay, conditions: SPR, peptides tested at 10 μM; 5mer Top sequence (top combinations)

Substance	Binding affinity [Ru]
5mer-517 (KGYTR)	70
5mer-537 (RLRLR)	59
5mer-551 (RWQYR)	59
5mer-275 (KVYTR)	64
5mer-520 (RVLLK)	86
5mer-246 (KSFTR)	60
5mer-553 (KLLSR)	72
5mer-299 (KGRRK)	62
5mer-529 (RVQSR)	84
5mer-555 (KVQCK)	71
5mer-273 (RVQSK)	82

Same assay, conditions: SPR, peptides tested at 10 μM; 6mer-1 Bottom sequence (Table 11)

Substance	Binding affinity [Ru]
6mer-1-950 (RKEDKR)	29
6mer-1-872 (KRPCHR)	23
6mer-1-846 (RKDAEK)	28
6mer-1-974 (RKPAHK)	27
6mer-1-886 (RKFSNK)	17
6mer-1-809 (KKKSNR)	12
6mer-1-960 (KKCPFR)	34
6mer-1-812 (RKDHMK)	26
6mer-1-891 (RKMAFR)	13
6mer-1-860 (RKHWWR)	22
6mer-1-932 (KRFEFK)	38
6mer-1-996 (RRPPWK)	39
6mer-1-804 (KRDPFR)	31

Same assay, conditions: SPR, peptides tested at 10 μM; 6mer-1 Top sequence

Substance	Binding affinity [Ru]
6mer-1-403 (KRSQTK)	153
6mer-1-468 (RRLYRR)	153
6mer-1-454 (RKVLRR)	124
6mer-1-581 (KRGLYK)	139
6mer-1-410 (KRVLRK)	148
6mer-1-589 (KKLQQK)	139
6mer-1-579 (KRSVRK)	148
6mer-1-463 (KRSFRK)	153
6mer-1-491 (RKLRLR)	137
6mer-1-487 (RKGRRK)	121

Same assay, conditions: SPR, peptides tested at 10 μM; 6mer-1 Top sequence (top combinations)

Substance	Binding affinity [Ru]
6mer-1-177 (KRGYRR)	121
6mer-1-79 (KRLFCK)	137
6mer-1-59 (KRLQCK)	145
6mer-1-164 (KRGQYK)	145
6mer-1-193 (KRVQLK)	149
6mer-1-176 (KKVYCK)	121
6mer-1-7 (KRQYSK)	126

Same assay, conditions: SPR; XRRGVRR-7mer and RRGVRRX-7mer

Substance	Binding affinity, values relative to the RRGVRR sequence
3654 (NRRGVRR) [compound 3654]	109
3659 (DRRGVRR) [compound 3659]	159

Same assay, conditions: SPR; XRRQRR-6mer and RRQRRX-6mer

Substance	Binding affinity, relative value to the RRQRR sequence
3608 (MRRQRR) [compound 3608]	119
3612 (TRRQRR) [compound 3612]	103
3622 (RRQRRA) [compound 3622]	113

Same assay, conditions: SPR; peptides tested at 10 μM; 5mer Bottom sequence

Substance	Binding affinity [Ru]
5mer-847 (KAPEK)	28
5mer-1127 (RIADR)	16
5mer-1162 (KIKKK)	15
5mer-1136 (KNSAR)	25
